PMC3402500, “Genes for Carbon Metabolism and the ToxA Virulence Factor in Pseudomonas aeruginosa Are Regulated through Molecular Interactions of PtxR and PtxS” (PLoS ONE, 2012)

B3: PtxS (natural protein)
chain: MNGSVLPSRGRVTINQVAEAAGVSKASVSRYIGGDRQLLADATARRIERAIDQLDYRPNQMARGLKRGRTRLIGMLVADILNPYSVAVMHGVETACREHGYSLVVCNTDRDDEQERHHLAALQSYNVEGLIVNTLGHHPGELRALHRELPMVLVDRQLAELDTDLVGLDNADAVEQALDHLQHRGFRDILLVTEPLDGTSSRIERVQAFNASIGRRPALKGQVLQTDDFFRDGLRAFLSASGPGPKALFTCNGVATLCATRQLRDLGCRLFDEVGLLALDELDWYPLVGSGITALAQPTDEIGRTAFERLLARLEGDREPARRVTFPAQLIVRGSTHPRG
notes: PtxS, LacI family transcriptional regulator of Pseudomonas aeruginosa PAO1; ptxS gene amplified from chromosomal DNA and cloned NheI/XhoI into pET24b(+); The NheI/XhoI cloning into pET24b(+) may add a few vector residues at both ends; source: E. coli BL21 (DE3), purified (His-Trap chelating column); not shown: His6, C-terminal, kept
B4: PtxR (natural protein)
chain: MSAALERLNHLNLNHLYAFVAVAEHNSFTAAAEALGLSKSLLSEQLRRLEADLGIQLLTRTTRRMTLTDRGELLFGVAQRMLGELDGALSDVRDLQGEPSGRLRITAPQDFVKWHISSVSAAFIRQFPKVQVEMLADDQFSDLVGQRIDLAVRIGWPRDSGLHASKLCDFQQVAVATPGYLAGLPPVLQPHDLARCEWIGHTRLSTPWTWTFERQRERATVQTRGRLLANNTLAVYRLVLDGAGVSVLPSFLVAREIARGRLVRLLPGWRLPQGGIYALYPSARYMPVRVRAFIESLREHLGREPFRLAQSE
notes: PtxR, LysR-type transcriptional regulator of Pseudomonas aeruginosa PAO1; ptxR gene amplified from chromosomal DNA and cloned NheI/XhoI into pET24b(+); The NheI/XhoI cloning into pET24b(+) may add a few vector residues at both ends; source: E. coli BL21 (DE3), purified (His-Trap chelating column); not shown: His6, C-terminal, kept

Columns and labels:
[1] = biological target: T1, PtxS (Pseudomonas aeruginosa PAO1) (UniProt G3XD97); assay: EMSA; conditions: ITC: 50 mM HEPES pH 7.9, 300 mM NaCl, 1 mM DTT, 10% glycerol, 20 C. EMSA/footprint: 50 mM Tris-HCl pH 7.5, 10 mM NaCl, 0.5 M Mg acetate (so in the source), 0.1 mM …
T1 sequence: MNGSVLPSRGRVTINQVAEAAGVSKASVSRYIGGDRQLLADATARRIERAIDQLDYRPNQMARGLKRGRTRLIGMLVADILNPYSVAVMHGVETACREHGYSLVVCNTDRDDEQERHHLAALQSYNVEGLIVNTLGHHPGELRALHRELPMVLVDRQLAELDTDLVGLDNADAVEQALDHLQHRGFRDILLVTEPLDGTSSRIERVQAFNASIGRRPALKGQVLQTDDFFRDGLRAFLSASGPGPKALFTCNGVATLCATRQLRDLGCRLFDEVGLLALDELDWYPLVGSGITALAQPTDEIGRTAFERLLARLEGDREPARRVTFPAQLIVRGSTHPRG

[2] = biological target: T2, PtxR (Pseudomonas aeruginosa PAO1) (UniProt P72131); assay: EMSA; conditions: ITC: 50 mM HEPES pH 7.9, 300 mM NaCl, 1 mM DTT, 10% glycerol, 20 C. EMSA/footprint: 50 mM Tris-HCl pH 7.5, 10 mM NaCl, 0.5 M Mg acetate (so in the source), 0.1 mM …
T2 sequence: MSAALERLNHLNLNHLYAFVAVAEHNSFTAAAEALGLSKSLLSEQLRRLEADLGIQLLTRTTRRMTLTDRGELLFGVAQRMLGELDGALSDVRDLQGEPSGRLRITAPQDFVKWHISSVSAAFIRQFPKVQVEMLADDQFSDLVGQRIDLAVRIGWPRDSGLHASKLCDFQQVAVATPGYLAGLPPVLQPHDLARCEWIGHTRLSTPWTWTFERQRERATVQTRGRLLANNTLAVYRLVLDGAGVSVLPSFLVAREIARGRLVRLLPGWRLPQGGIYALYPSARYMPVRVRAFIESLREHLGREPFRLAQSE

[3] = biological target: T1, PtxS (Pseudomonas aeruginosa PAO1); assay: DNase I footprinting; conditions: ITC: 50 mM HEPES pH 7.9, 300 mM NaCl, 1 mM DTT, 10% glycerol, 20 C. EMSA/footprint: 50 mM Tris-HCl pH 7.5, 10 mM NaCl, 0.5 M Mg acetate (so in the source), 0.1 mM …
[4] = biological target: T2, PtxR (Pseudomonas aeruginosa PAO1); assay: DNase I footprinting; conditions: ITC: 50 mM HEPES pH 7.9, 300 mM NaCl, 1 mM DTT, 10% glycerol, 20 C. EMSA/footprint: 50 mM Tris-HCl pH 7.5, 10 mM NaCl, 0.5 M Mg acetate (so in the source), 0.1 mM …
[5] = biological target: T3, PtxR;PtxS (Pseudomonas aeruginosa PAO1;Pseudomonas aeruginosa PAO1) (UniProt P72131+G3XD97); assay: DNase I footprinting; conditions: ITC: 50 mM HEPES pH 7.9, 300 mM NaCl, 1 mM DTT, 10% glycerol, 20 C. EMSA/footprint: 50 mM Tris-HCl pH 7.5, 10 mM NaCl, 0.5 M Mg acetate (so in the source), 0.1 mM …
T3 sequence 1: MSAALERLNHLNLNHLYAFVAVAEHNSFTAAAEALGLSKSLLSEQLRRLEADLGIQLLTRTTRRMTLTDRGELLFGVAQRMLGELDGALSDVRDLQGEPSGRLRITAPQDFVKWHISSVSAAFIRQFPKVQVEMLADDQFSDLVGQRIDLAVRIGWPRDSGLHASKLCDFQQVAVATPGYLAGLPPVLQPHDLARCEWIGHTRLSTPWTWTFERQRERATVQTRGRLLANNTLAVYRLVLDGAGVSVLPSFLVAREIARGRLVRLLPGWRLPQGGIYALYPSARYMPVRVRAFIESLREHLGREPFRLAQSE
T3 sequence 2: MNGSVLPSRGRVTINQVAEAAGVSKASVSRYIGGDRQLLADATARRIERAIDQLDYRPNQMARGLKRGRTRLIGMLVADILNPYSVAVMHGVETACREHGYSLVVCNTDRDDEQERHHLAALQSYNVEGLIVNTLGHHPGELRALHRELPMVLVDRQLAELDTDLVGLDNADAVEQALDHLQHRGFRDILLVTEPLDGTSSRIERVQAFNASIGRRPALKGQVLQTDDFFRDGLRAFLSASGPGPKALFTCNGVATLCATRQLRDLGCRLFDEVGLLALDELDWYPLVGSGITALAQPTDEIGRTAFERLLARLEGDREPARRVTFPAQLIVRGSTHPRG

[6] = biological target: PtxR S40A (Pseudomonas aeruginosa PAO1, UniProt P72131 1-312, S40A); assay: ITC; ITC: 50 mM HEPES pH 7.9, 300 mM NaCl, 1 mM DTT, 10% glycerol, 20 C. EMSA/footprint: 50 mM Tris-HCl pH 7.5, 10 mM NaCl, 0.5 M Mg acetate (so in the source), 0.1 mM EDTA, 1 mM DTT, 5% glycerol, 30 C; EMSA with 20 ug/ml poly(dIC), 200 ug/ml BSA; conditions: protein: recombinant; tags: C-terminal His6 (pET24b); chain copies: 4; blunt
[7] = biological target: T4, PtxR (Pseudomonas aeruginosa PAO1, UniProt P72131 1-312); assay: as above; conditions: protein: recombinant; tags: C-terminal His6 (pET24b); chain copies: 4; blunt
T4 sequence: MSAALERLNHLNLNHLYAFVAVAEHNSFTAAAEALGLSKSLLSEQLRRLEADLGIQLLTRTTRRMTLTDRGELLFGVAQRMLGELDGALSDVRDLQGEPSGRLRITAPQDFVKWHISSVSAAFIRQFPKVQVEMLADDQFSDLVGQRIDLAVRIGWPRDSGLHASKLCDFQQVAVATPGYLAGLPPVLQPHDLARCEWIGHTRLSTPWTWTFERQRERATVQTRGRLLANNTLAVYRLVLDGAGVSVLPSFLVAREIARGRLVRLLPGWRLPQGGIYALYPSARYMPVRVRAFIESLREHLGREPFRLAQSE

[8] = biological target: PtxR D52A (Pseudomonas aeruginosa PAO1, UniProt P72131 1-312, D52A); assay: as above; conditions: protein: recombinant; tags: C-terminal His6 (pET24b); chain copies: 4; blunt
[9] = biological target: PtxR E44A (Pseudomonas aeruginosa PAO1, UniProt P72131 1-312, E44A); assay: as above; conditions: protein: recombinant; tags: C-terminal His6 (pET24b); chain copies: 4; blunt
[10] = biological target: T5, PtxS (Pseudomonas aeruginosa PAO1, UniProt G3XD97 1-340); assay: as above; conditions: protein: recombinant; tags: C-terminal His6 (pET24b); chain copies: 2; blunt
T5 sequence: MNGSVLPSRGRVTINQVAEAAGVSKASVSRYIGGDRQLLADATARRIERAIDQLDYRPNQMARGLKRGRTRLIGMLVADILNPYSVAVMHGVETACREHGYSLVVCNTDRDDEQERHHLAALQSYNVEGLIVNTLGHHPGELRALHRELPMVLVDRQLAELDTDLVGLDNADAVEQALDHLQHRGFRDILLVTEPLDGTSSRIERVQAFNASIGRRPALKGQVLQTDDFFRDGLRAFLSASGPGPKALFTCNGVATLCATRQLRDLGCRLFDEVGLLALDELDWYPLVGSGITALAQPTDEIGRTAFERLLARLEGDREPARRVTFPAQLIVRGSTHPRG

[11] = biological target: PtxR K39A (Pseudomonas aeruginosa PAO1, UniProt P72131 1-312, K39A); assay: as above; conditions: protein: recombinant; tags: C-terminal His6 (pET24b); chain copies: 4; blunt
[12] = biological target: PtxR R47A (Pseudomonas aeruginosa PAO1, UniProt P72131 1-312, R47A); assay: as above; conditions: protein: recombinant; tags: C-terminal His6 (pET24b); chain copies: 4; blunt
[13] = biological target: B4; assay: ITC; free proteins; 50 µM PtxS in 3.2 µl aliquots into PtxR (3 µM by the legend); 20°C, 50 mM HEPES pH 7.9, 300 mM NaCl, 1 mM dithiothreitol, 10% glycerol; two binding site model; conditions: both partners purified
[14] = biological target: B4; assay: ITC; 5 µM PtxR saturated beforehand with 50 µM duplex DNA of P_(toxA) holding the PtxR operator, titrated with 50 µM PtxS; 20°C, 50 mM HEPES pH 7.9, 300 mM NaCl, 1 mM dithiothreitol, 10% glycerol; two binding site model; conditions: both partners purified
[15] = biological target: B3; assay: native gel or EMSA; native polyacrylamide gel, 10 µM homogeneous PtxS, PtxR or both mixed, 1 h at 120 V, Coomassie stain, confirmed by western blot with an anti-His tag antibody; conditions: both partners purified

Molecule: CAACTGATCGTTCGCGGCTCGACCCATCCACGCGGCTAGCGGCCCGCCGCCGGCGCGTTGCCGGCGGCTTTCGCACGGCTTGAAATGAAACCGGTTTCAGAGGATCGCCAATGTCCCTTCACCCCGTCTCCATCAGTCTTTCCAGCTATGGCGCGGACCTCGTTCGCAGTCGCGGCCAGGCCAGCTTCCTGCCCTTGCTGGCGATGGCCGGCGCGCAGCGCGTGGAACTGCGCGAGGAACTCTTCGCCGGCCCGCCGGATACCGAGGCGCTGACCGCCGCCATCCAGTT (double strand) [Pkgu promoter fragment]
- binding [1]: binds
- binding [2]: binds

Molecule: CCGTTGACGGCCTTGTCATCGGGCATGGTGGGGTCCTCTCTGGATCATCACGGTTTCGTCTTTCTGATAATGATTAGCAGGCTAATTATAAGTTCATGTGTCACGTTGAAAAAACGTTTCAGCAAGGATTCAGGCAGGCCAATACCGGCAAGTGAAGCAGAACGGCGCGCCGGGCGTCGGCCCGGCGCGGCCTTCAGGCGCCTCGCCGTCGCGCCCAGGCCGAAGGATTGACCAGGTTCAGCGGCC (double strand) [Pgad promoter fragment]
- binding [3]: binds
- binding [4]: binds
- binding [5]: binds
- binding [1]: binds
- binding [2]: binds

B1: PtoxA 50-mer (-58 to -8) (dsDNA)
DNA 1: GATATCGGCTGCTGGCCAGGGGCGCCAGCGCCGACAGCCTCGTGCTTCAA
DNA 2: TTGAAGCACGAGGCTGTCGGCGCTGGCGCCCCTGGCCAGCAGCCGATATC
- binding result [6]: no binding
- Kd [7]: 164 ± 6 nM
- binding result [8]: no binding
- binding result [9]: no binding
- binding result [10]: no binding
- binding result [11]: no binding
- Kd [12]: 240 ± 11 nM

B2: PtoxA 50-mer mutant operator (dsDNA)
DNA 1: GATATCGGCTGCTGGCCAGGCCGACAGCCTCGTGCTTCAA
DNA 2: TTGAAGCACGAGGCTGTCGGCCTGGCCAGCAGCCGATATC
- binding result [7]: no binding

Molecule: B3
- KD of the first, high affinity event [13]: 12 ± 3 nM
- KD of the second, lower affinity event [13]: 102 ± 10 nM
- dH of the first, high affinity event [13]: -17.8 ± 0.9 kcal/mol
- dH of the second, lower affinity event [13]: -9.1 ± 0.5 kcal/mol
- stoichiometry N [13]: 1.02
- KD of the first event, PtxR bound to DNA [14]: ~1700 nM
- KD of the second event, PtxR bound to DNA [14]: ~8200 nM

Molecule: B4
- binding result [15]: binds
